Experimental data as given in PMC6642015 (Cell chemical biology, 2019).
Numbering of substitutions follows the chain as printed. Blank lines part the entries; values can stand above or below the molecule they belong to.

Columns and labels:
human MCM-CblA complex = target: T1, human MCM-CblA complex (Homo sapiens, UniProt Q8IVH4); experiment: gel filtration and negative stain EM; assay type: binding; conditions: MCM 25 μM, CblA 50 μM, GMPPCP 500 μM
T1 sequence (Q8IVH4 66-418 limits assumed): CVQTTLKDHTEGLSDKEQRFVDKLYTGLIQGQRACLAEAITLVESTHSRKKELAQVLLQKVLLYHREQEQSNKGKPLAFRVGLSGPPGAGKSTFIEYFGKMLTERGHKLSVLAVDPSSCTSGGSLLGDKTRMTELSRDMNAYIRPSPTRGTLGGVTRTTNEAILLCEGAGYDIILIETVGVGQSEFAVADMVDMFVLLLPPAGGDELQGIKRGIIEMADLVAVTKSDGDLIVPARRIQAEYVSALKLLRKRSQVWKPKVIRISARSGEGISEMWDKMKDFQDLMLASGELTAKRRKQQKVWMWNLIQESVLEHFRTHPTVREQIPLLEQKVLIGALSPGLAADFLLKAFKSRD
T1 sequence (P22033 33-750 partner): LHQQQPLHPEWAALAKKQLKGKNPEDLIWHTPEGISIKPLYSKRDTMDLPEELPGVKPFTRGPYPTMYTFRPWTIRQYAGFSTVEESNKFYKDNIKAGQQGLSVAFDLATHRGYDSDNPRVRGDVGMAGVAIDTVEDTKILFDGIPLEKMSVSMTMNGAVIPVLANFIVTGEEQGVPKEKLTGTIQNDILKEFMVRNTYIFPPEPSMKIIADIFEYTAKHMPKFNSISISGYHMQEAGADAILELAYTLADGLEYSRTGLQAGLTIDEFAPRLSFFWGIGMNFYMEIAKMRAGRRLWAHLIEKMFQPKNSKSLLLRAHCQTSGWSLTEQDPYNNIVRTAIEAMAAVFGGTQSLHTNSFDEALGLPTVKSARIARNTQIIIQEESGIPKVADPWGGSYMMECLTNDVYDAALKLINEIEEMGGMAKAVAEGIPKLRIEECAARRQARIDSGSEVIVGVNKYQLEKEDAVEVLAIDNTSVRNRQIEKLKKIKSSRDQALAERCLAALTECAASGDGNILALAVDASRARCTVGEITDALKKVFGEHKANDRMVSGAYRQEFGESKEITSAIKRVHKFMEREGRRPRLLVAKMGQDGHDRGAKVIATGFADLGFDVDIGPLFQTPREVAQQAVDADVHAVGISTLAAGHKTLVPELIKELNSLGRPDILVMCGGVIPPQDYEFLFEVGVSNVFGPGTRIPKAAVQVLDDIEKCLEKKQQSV

human CblA K276A = target: T2, human CblA K276A (human, UniProt Q8IVH4 72-418, K276A); experiment: cell-based or functional assay
T2 sequence: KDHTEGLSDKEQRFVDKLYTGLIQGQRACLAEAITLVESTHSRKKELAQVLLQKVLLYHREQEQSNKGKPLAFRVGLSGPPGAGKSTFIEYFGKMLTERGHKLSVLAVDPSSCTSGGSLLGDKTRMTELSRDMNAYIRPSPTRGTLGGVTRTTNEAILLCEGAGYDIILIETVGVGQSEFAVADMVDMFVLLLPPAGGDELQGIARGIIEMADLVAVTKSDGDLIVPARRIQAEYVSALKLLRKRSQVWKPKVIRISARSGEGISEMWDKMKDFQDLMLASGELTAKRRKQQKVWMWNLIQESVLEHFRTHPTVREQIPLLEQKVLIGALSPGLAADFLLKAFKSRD

human CblA, wild type [1] = target: T3, human CblA, wild type (human, UniProt Q8IVH4 72-418); experiment: cell-based or functional assay
T3 sequence: T2 sequence with A205K

human CblA K276E = target: T4, human CblA K276E (human, UniProt Q8IVH4 72-418, K276E); experiment: cell-based or functional assay
T4 sequence: T2 sequence with A205E

human CblA Q273A = target: T5, human CblA Q273A (human, UniProt Q8IVH4 72-418, Q273A); experiment: cell-based or functional assay
T5 sequence: T2 sequence with Q202A, A205K

human CblA G274S = target: T6, human CblA G274S (human, UniProt Q8IVH4 72-418, G274S); experiment: cell-based or functional assay
T6 sequence: T2 sequence with G203S, A205K

human CblA G278D = target: T7, human CblA G278D (human, UniProt Q8IVH4 72-418, G278D); experiment: cell-based or functional assay
T7 sequence: T2 sequence with A205K, G207D

human CblA, wild type [2] = target: T3, human CblA, wild type; experiment: SEC-MALS

Molecule: Nc1nc2c(ncn2[C@@H]2O[C@H](COP(=O)(O)OP(=O)(O)CP(=O)(O)O)[C@@H](O)[C@H]2O)c(=O)[nH]1 [GMPPCP]
gel filtration and negative stain EM; block of AdoCbl transfer (human MCM-CblA complex): higher order oligomeric peak seen in the presence of GMPPCP

GTPase activity of CblA in the presence of MCM (GAP activation) (human CblA K276A): 2.98 min⁻¹
GTPase activity of CblA in the presence of MCM (GAP activation) (human CblA, wild type [1]): 2.78 min⁻¹
GTPase activity of CblA in the presence of MCM (GAP activation) (human CblA K276E): 0.92 min⁻¹
GTPase activity of CblA in the presence of MCM (GAP activation) (human CblA Q273A): 0.86 min⁻¹
GTPase activity of CblA in the presence of MCM (GAP activation) (human CblA G274S): 1.04 min⁻¹
GTPase activity of CblA in the presence of MCM (GAP activation) (human CblA G278D): 3.07 min⁻¹
stoichiometry N (human CblA, wild type [2]): 2 MCM (dimer) per CblA (dimer)
B1: human methylmalonyl-CoA mutase (enzyme, UniProt P22033 33-750, looked up)
chain: T1 sequence (P22033 33-750 partner)
